Experimental data as given in patent publication US20200024330A1.

Key:
Assay in all cases: cell-based or functional assay
[1] = molecular target: HIV-1 Env of isolate MGRM-D-003 (clade D) (HIV-1)
[2] = molecular target: HIV-1 MGRM-A-004 envelope glycoprotein (Env) (HIV-1)
[3] = molecular target: HIV-1 MGRM-C-014 Env (HIV-1)
[4] = molecular target: HIV-1 MGRM-C-005 Env (HIV-1)
[5] = molecular target: HIV-1 MGRM-F1-017 Env (pseudovirus) (HIV-1)
[6] = molecular target: HIV-1 MGRM-C-004 Env (HIV-1)
[7] = molecular target: HIV-1 Env of pseudovirus TRO.11 (Acute), clade B (HIV-1)
[8] = molecular target: HIV-1 CMU02 envelope protein (Env) on pseudovirus (HIV-1)
[9] = molecular target: HIV-1 MGRM-F1-008 Env (pseudovirus) (HIV-1)
[10] = molecular target: HIV-1 MGRM-A-009 envelope glycoprotein (Env) (HIV-1)
[11] = molecular target: HIV-1 92BR020 envelope protein (Env) on pseudovirus (HIV-1)
[12] = molecular target: HIV-1 APV-13 envelope protein (Env) on pseudovirus (HIV-1)
[13] = molecular target: HIV-1 Env of isolate 92UG005 (clade D) (HIV-1)
[14] = molecular target: HIV-1 92RW026 envelope glycoprotein (Env) (HIV-1)
[15] = molecular target: HIV-1 MGRM-C-002 Env (HIV-1)
[16] = molecular target: HIV-1 Env of pseudovirus SC422661.8 (Acute), clade B (HIV-1)
[17] = molecular target: HIV-1 92TH021 envelope protein (Env) on pseudovirus (HIV-1)
[18] = molecular target: HIV-1 94UG114 envelope glycoprotein (Env) on pseudovirus (HIV-1)
[19] = molecular target: HIV-1 VLGCA1 envelope glycoprotein (Env) on pseudovirus (HIV-1)
[20] = molecular target: HIV-1 MGRM-C-024 Env (HIV-1)
[21] = molecular target: HIV-1 Env of isolate 92TH021 (HIV-1)
[22] = molecular target: HIV-1 Env of isolate 92BR020 (pseudovirus) (HIV-1 isolate 92BR020, subtype B)
[23] = molecular target: HIV-1 Env of isolate MGRM-G-024 (HIV-1)
[24] = molecular target: HIV-1 JR-CSF Env V120A (HIV-1 (isolate JR-CSF)) (UniProt P20871)
[25] = molecular target: HIV-1 Env of isolate 92WR021 (HIV-1)
[26] = molecular target: HIV-1 Env of isolate 94UG103 (HIV-1)
[27] = molecular target: HIV-1 Env of isolate MGRM-D-029 (subtype D), on pseudovirus (HIV-1)
[28] = molecular target: HIV-1 JR-CSF Env Y177A (HIV-1 (isolate JR-CSF)) (UniProt P20871)
[29] = molecular target: HIV-1 Env of isolate MGRM-AE-004 (CRF01_AE), on pseudovirus (HIV-1)
[30] = molecular target: HIV-1 Env of isolate APV-17 (pseudovirus) (HIV-1 isolate APV-17, subtype B)
[31] = molecular target: HIV-1 JR-CSF Env D167A (HIV-1 (isolate JR-CSF)) (UniProt P20871)
[32] = molecular target: HIV-1 Env of isolate MGRM-F1-023 (subtype F), on pseudovirus (HIV-1)
[33] = molecular target: HIV-1 Env of isolate MGRM-D-003 (HIV-1)
[34] = molecular target: HIV-1 JR-CSF Env N134A (HIV-1 (isolate JR-CSF)) (UniProt P20871)

| Substance | IC50 (µg/ml), pseudovirus neutralization [1] | IC50 (µg/ml), pseudovirus neutralization [2] | IC50 [3] | IC50 [4] | IC50 (µg/ml), pseudovirus neutralization [5] | IC50 [6] | IC50 (µg/ml), pseudovirus neutralization [7] | neutralization IC50 [8] | IC50 (µg/ml), pseudovirus neutralization [9] | IC50 (µg/ml), pseudovirus neutralization [10] | neutralization IC50 [11] | neutralization IC50 [12] | IC50 (µg/ml), pseudovirus neutralization [13] | IC50 (µg/ml), pseudovirus neutralization [14] | IC50 [15] | IC50 (µg/ml), pseudovirus neutralization [16] | neutralization IC50 [17] | IC50 (µg/ml), pseudovirus neutralization [18] | IC50 (µg/ml), pseudovirus neutralization [19] | IC50 [20] | further results |
| --- | --- | --- | --- | --- | --- | --- | --- | --- | --- | --- | --- | --- | --- | --- | --- | --- | --- | --- | --- | --- | --- |
| 2F5 (antibody) | > 50 µg/mL | 7.49 µg/mL | > 50 µg/mL | > 50 µg/mL | > 50 µg/mL | > 50 µg/mL | > 50 µg/mL | 0.38 µg/mL | 1.61 µg/mL | 9.4 µg/mL | > 50 µg/mL | 2.8 µg/mL | 8.61 µg/mL | 8.63 µg/mL | 44.7 µg/mL | > 50 µg/mL | 1.51 µg/mL | > 50 µg/mL | 3.9 µg/mL | > 50 µg/mL |  |
| 2G12 (antibody) | > 50 µg/mL | > 50 µg/mL | > 50 µg/mL | > 50 µg/mL | > 50 µg/mL | > 50 µg/mL | 0.29 µg/mL | > 50 µg/mL | > 50 µg/mL | 7.47 µg/mL | 2.26 µg/mL | 23.9 µg/mL | > 50 µg/mL | 17.2 µg/mL | > 50 µg/mL | 0.84 µg/mL | > 50 µg/mL | 13.9 µg/mL | > 50 µg/mL | > 50 µg/mL | IC50 (µg/ml), pseudovirus neutralization [21]: > 50 µg/mL |
| 4E10 (antibody) | 2.49 µg/mL | 3.14 µg/mL | 2.48 µg/mL | 16.4 µg/mL | 4.92 µg/mL | 24.2 µg/mL | 1.39 µg/mL | 0.59 µg/mL | 2.75 µg/mL | 12 µg/mL | 41.4 µg/mL | 3.8 µg/mL | 7.46 µg/mL | 12.9 µg/mL | 18.2 µg/mL | 6.35 µg/mL | 1.9 µg/mL | 9.72 µg/mL | 4.58 µg/mL | 22.6 µg/mL | IC50 (µg/ml), pseudovirus neutralization [21]: 1.17 µg/mL |
| 1443_C16 (PG16) (TCN-116) (antibody) | 0.01 µg/mL | 0.04 µg/mL | > 50 µg/mL | 2.55 µg/mL | > 50 µg/mL | 5.09 µg/mL | 0.22 µg/mL | > 50 µg/mL | > 50 µg/mL | 0.01 µg/mL | > 50 µg/mL | > 50 µg/mL | > 50 µg/mL | 0.03 µg/mL | 28.3 µg/mL | 1.13 µg/mL | 0.127 µg/mL | > 50 µg/mL | 0.18 µg/mL | 0.04 µg/mL | IC50 (µg/ml), pseudovirus neutralization [21]: 0.1 µg/mL |
| 1495_C14 (PGC14) (antibody) | > 50 µg/mL | > 50 µg/mL | > 50 µg/mL | > 50 µg/mL | > 50 µg/mL | > 50 µg/mL | > 50 µg/mL | > 50 µg/mL | > 50 µg/mL | > 50 µg/mL | 0.637 µg/mL | > 50 µg/mL | > 50 µg/mL | > 50 µg/mL | > 50 µg/mL | > 50 µg/mL | > 50 µg/mL | > 50 µg/mL | > 50 µg/mL | > 50 µg/mL | IC50 (µg/ml), pseudovirus neutralization [21]: > 50 µg/mL |
| 5147_N06 (PGT-130) (antibody) |  |  |  |  |  |  |  |  |  |  |  |  |  |  |  |  |  |  |  |  | IC50 (µg/mL) neutralization [22]: 1.4 µg/mL; IC50, pseudovirus neutralization [23]: 5.84 µg/mL; Fold IC50 increase relative to wild-type [24]: 0.8 fold; neutralization IC50 [25]: 0.004 µg/mL; neutralization IC50 [26]: 1.4 µg/mL; IC50, pseudovirus neutralization [27]: > 50 µg/mL; Fold IC50 increase relative to wild-type [28]: 3.6 fold; IC50, single-round pseudovirus neutralization [29]: 2.43 µg/mL; IC50 (µg/mL) neutralization [30]: 10.7 µg/mL; Fold IC50 increase relative to wild-type [31]: 1.2 fold; neutralization IC50 [13]: 0.474 µg/mL; neutralization IC80 [13]: > 10 µg/mL; neutralization IC90 [13]: > 10 µg/mL; neutralization IC95 [13]: > 10 µg/mL; IC50, pseudovirus neutralization [32]: 0.05 µg/mL; IC50 [33]: 0.651 µg/mL; Fold IC50 increase relative to wild-type [34]: 0.6 fold |
| b12 (antibody) | > 50 µg/mL | > 50 µg/mL | > 50 µg/mL | 2.66 µg/mL | > 50 µg/mL | 5.46 µg/mL | > 50 µg/mL | 4.25 µg/mL | > 50 µg/mL | 4.34 µg/mL | 27.5 µg/mL | > 25 µg/mL | > 50 µg/mL | > 50 µg/mL | > 50 µg/mL | 6.11 µg/mL | 9.99 µg/mL | > 50 µg/mL | > 50 µg/mL | > 50 µg/mL |  |
